# Reference: publication PMC4833825
# Molecular target: recombinant S. pombe eIF2B, one set of the five subunits (α, β, γ, δ, ε), tags cleaved (S. pombe) (UniProt Q9USP0)
# Assay: SEC; purified complex after HRV 3C cleavage of the tags; Sephacryl S-300, then Superose 6 with HMW calibration kit, buffer C (20 mM HEPES-KOH pH 7.5, 150 mM KCl, 5 % glycerol, 1 mM DTT), 277 K; SDS-PAGE of the purified complex
substance,measurement,value
"recombinant S. pombe eIF2B, one set of the five subunits (α, β, γ, δ, ε), tags cleaved, Q9USP0 1-341; Q9UT76 1-393; P56288 1-458; Q09924 1-467; P56287 1-678",stoichiometry N,2
